The term stoichiometry N denotes a count of units in the complex or per binding partner.

From paper PMC13451967 come the findings set out here.

The target in test [1] is His-SpNDK H121A mutant (catalytically inactive) (Streptococcus pneumoniae). Nature of the test: mass photometry; Refeyn OneMP; 50 mM HEPES pH 7.4, 150 mM NaCl with ATP or GTP and 5 mM MgCl2, 5 min at 22°C before the analysis.
Test [2] addresses His-SpNDK R28A mutant (Streptococcus pneumoniae). Nature of the test: SEC; Superdex 200 Increase 10/300 GL, 50 mM HEPES pH 7.4, 100 mM NaCl; concentrated sample; molecular weights from a standard curve.
In test [3] the target is Streptococcus pneumoniae nucleoside diphosphate kinase with an N-terminal hexa-histidine tag (His-SpNDK), wild type (Streptococcus pneumoniae). Nature of the test: mass photometry; Refeyn OneMP; His-SpNDK diluted to 200 nM, 5 µL added to 15 µL of buffer; 50 mM HEPES pH 7.4, 100 mM NaCl; no nucleotide (ADP or GDP had no significant effect on the wild type).
For test [4] the target is unchanged. Briefly: SEC; Superdex 200 Increase 10/300 GL, 50 mM HEPES pH 7.4, 100 mM NaCl; concentrated sample; molecular weights from a standard curve. (SEC sorts molecules by how far they enter the pores of the column.)

With “His-SpNDK H121A mutant (catalytically inactive) (enzyme)”, the stoichiometry N in test [1] is less than 6. As for His-SpNDK R28A mutant (enzyme), the stoichiometry N in test [2] stood at 2. For “Streptococcus pneumoniae nucleoside diphosphate kinase with an N-terminal hexa-histidine tag (His-SpNDK), wild type (enzyme)”, the stoichiometry N in test [3] and in test [4] was 18 throughout.
